Assay: label from the status in PepcDB records

Sequence: MKKVIAGLAAASVVGVAVPGMDSAQAQVSNEALKEINGQTQTQTTVTETKTVETKSDLKYTVTADVLNVRSGAGTGHSVISKVKQGQVLQVIGQENGWFKVTVNGQTGYVSGDFVTTGGKTGTTVQQGTGTYTVNVSSLNVRTGPSTSHTVLGSVNKGKTVQVVSEVQDWFKINFNGGTGYVSKDFVTKGGSAVSNQTQQPTTNNNTTTVQTGGSYVVNTGALKVRTGPATYNAVIGGVTNGTVLNVTGAENGWYKINHNGRTGYVSADFVKFVKGGVNNVTNNVQQPVKDVQKPTTGGNTSSIAGFARSLNGSPYRTAGTTPAGFDCSGFIHYVLNQTGHKGARQTVAGYWSSKTKTSNPQPGDLVYFQNTYKSGPSHMGVYLGNGQFISAETDATGVRISSVSNSYWSKHLLGYTKAYLEHHHHHH
- protein production: failed

Sequence: MIMTVLRQQPRAAGLVLGLIAANFLAWCWALQAFGDSGALMAASLLAWGYGLRHAVDADHIAAIDNVTRKMMQQGRRPFAVGAWFSLGHSSIVVLASAAIAATATAFSTQMSWLHDTGSVIGTAVSALFLLAMAFINLVILRSVWRSFRAWKRGEPVSDEIVSGGGVMSWLFGKTFRLISRSWQMYLVGFLFGLGFDTATEIGVLGISAAGASSGISVWSIMVFPALFASGMALVDTLDNVLMVGAYGWAFSKPQRKLYYNMTITGTSVVVALFIGGLEALGLLMDKFALSGGIWRWVGALNDNLGDAGFVVVGLFVACWALSVLNYRWRGYDNLAR
- protein production: failed

Sequence: MDIKDLMKKWSEQAENMRMFHMQELKENGSEWKKLLQENLKDCKGKKVLDAGCGTGFLAILLAQDGWEVTAIDSSEAMLEEGKKTAEELGLSDKITFLLKDAHSTDFPEHLFDAVVSRHASWLFTAPETVYKEWKRILKPGGIMLNIDANWLKPIWNTDEFEKFKSYEAELVKQYGEFRDYYHDEQMINILKKFPLAYINRPEWDEKMLKKIDFKEIASRLLSKEKYMDAFQAARYKTIPMFVIKAKNIE
- protein production: failed

Sequence: GKSFDAVRRTLSTELAQLRDDISRLMQAAVEAGAEAADDGEAVVISGERKLLDVTDIASDMDRLRKMFSLFEKKTDLLQLLDVSSRAQGVQIYIGGDSQLVPMEEVSVITAPYGVDGKVIGTLGVIGPTRMAYERVIPIVDITARLLSNALSHNQ
- protein production: failed

Sequence: MYVLVSSPFHYKQFTKFTIFSVFAGFSFIQNELTTYWFFILLFRQEITLFGLGVIARPLVRVFVSYLMGYISDKYDRAKLFYITRGISGILLFPLTFAFIYHSIPLIFGIYYIRTIIVELSNNVGYVAYYAVVPEQVRAKAIFYIRIISMASRVASGAVWYLIYQLISAYDLFLAGILGLIGLALLKGFNIGGGSKRVKLSTAIDFFRKDERIRGIILLYSVTDGLTYSINYLLPLLIIVYHGTEEIYSLSQTVLYGILVIASFVMTRIKDPIKIVSTYILSGFLFYLVLLYPSPYVLLISVLLYGFGSGIVENYVMATIKQSVGDEFLGSVLGLDVLVTSSVEIFLILLGQYLITINVVYYIIVGIVGMSLVLISWLLHPKLKDIKL
- protein production: failed

Sequence: MSIELDATTYIHAKPTTAHSYILPKIFDVLGDHFDGSAENDVFDLGCGTGGAAAALTKAGYDVVGVDPSSDGIGKANIRHPGLALSVGSAYDDLSREYGSFSAVISLEVVEHVYDPKTFTSTMFDLVKPGGIAVISTPYHGYLKNLALAATGKMDDHFMPLKDHGHIKFWSKNTLRTLLLETGFANVRFEYVGRIPAFAKSMIAVADKPFSQSARHGAVRRSSPEVVSTACRQKKP
- protein production: failed

Sequence: MSLVENLSLEPQPKRRKIDPEVKESPSRNCSHWFVRNKVCASCNTIVDNYQGRSFDYLYTGIQMSNEALGFTKRLISQTSWLEDKKLHLVLDLDHTLVHTIKVSQLSESEKYITEEVESRKDLRRFNTGFPEESLIKLRSFVHQFLKECNEMFSLYVYTKGGYDYAQLVLEMIDPDKIYFGNRVITRRESPGFKTLDLVLADERGIVVVDDKSSVWPHDKKNLLQIARYKYFGDQSCLLSECKKKIDESDEKGPLNTALRFLMDVHEEFFCDWSRKDLDSVDVRPLLKEISLRWKRKADGVV
- protein production: failed

Sequence: MVKVIFFDLDDTLVDTSKLAEIARKNAIENMIRHGLPVDFETAYSELIELIKEYGSNFPYHFDYLLRRLDLPYNPKWISAGVIAYHNTKFAYLREVPGARKVLIRLKELGYELGIITDGNPVKQWEKILRLELDDFFEHVIISDFEGVKKPHPKIFKKALKAFNVKPEEALMVGDRLYSDIYGAKRVGMKTVWFRYGKHSERELEYRKYADYEIDNLESLLEVLARESSSNKKVHPPRQQI
- protein production: not failed

Sequence: MLRRIVALAAVAAGGMMLSKTFRKSRDSGYTSSVENFIEVNVPVSTAYNQWTQFEEFPRFMKGVREVQQIDDTHLHWRAEIAGKEEEWDAEITEQVPDQRIAWHSTNGAKNSGVVSFYGISDSKTRVVLKMDYGPRTFLEGLGDALGAVKARTSEDLRCFKEFLESRGKETGAWRGSVGQH
- protein production: failed
